Test results: patent US20150322129A1 (Sanofi, published 2015)
Numbered stars: 1 amine (or outer) side, 2 acyl side, 3 side chain; on linkers, the order of the positions; unused ones are H or OH. Square brackets hold non-standard residues; d marks the D form. Side chains are listed from the residue outwards. Ends that are not written are not given here. * marks the point of attachment. γGlu = O=C(O)[C@H](CCC(=O)[*:2])N[*:1]; Stearoyl = CCCCCCCCCCCCCCCCCC(=O)*; Palmitoyl = CCCCCCCCCCCCCCCC(=O)*; AEEA = NCCOCCOCC(=O)O; Aib = CC(C)(N)C(=O)O

T1: human GIP receptor (human, UniProt P48546 22-466)
T1 sequence (looked up): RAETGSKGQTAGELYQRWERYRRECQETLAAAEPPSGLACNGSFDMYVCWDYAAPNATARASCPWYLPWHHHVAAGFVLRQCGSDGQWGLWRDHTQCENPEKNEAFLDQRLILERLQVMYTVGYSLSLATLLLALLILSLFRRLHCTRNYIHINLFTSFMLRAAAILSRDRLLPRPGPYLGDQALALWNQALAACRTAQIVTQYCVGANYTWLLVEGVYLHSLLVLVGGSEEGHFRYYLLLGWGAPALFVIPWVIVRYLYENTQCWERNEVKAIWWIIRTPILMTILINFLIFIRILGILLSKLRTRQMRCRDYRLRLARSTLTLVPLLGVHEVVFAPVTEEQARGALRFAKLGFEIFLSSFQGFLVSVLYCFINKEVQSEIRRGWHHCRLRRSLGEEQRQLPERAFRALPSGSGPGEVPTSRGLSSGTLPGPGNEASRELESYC

B1: SEQ ID NO: 15 (peptide)
peptide: H[dS]HGTFTSDLSKQK([γGlu-Stearoyl])DEEAVRLFIEWLKAGGPSSGAPPPS-NH2
modifications: N-terminus assumed
SMILES: CCCCCCCCCCCCCCCCCC(=O)N[C@@H](CCC(=O)NCCCC[C@H](NC(=O)[C@H](CCC(N)=O)NC(=O)[C@H](CCCCN)NC(=O)[C@H](CO)NC(=O)[C@H](CC(C)C)NC(=O)[C@H](CC(=O)O)NC(=O)[C@H](CO)NC(=O)[C@@H](NC(=O)[C@H](Cc1ccccc1)NC(=O)[C@@H](NC(=O)CNC(=O)[C@H](Cc1c[nH]cn1)NC(=O)[C@@H](CO)NC(=O)[C@@H](N)Cc1c[nH]cn1)[C@@H](C)O)[C@@H](C)O)C(=O)N[C@@H](CC(=O)O)C(=O)N[C@@H](CCC(=O)O)C(=O)N[C@@H](CCC(=O)O)C(=O)N[C@@H](C)C(=O)N[C@H](C(=O)N[C@@H](CCCNC(=N)N)C(=O)N[C@@H](CC(C)C)C(=O)N[C@@H](Cc1ccccc1)C(=O)N[C@H](C(=O)N[C@@H](CCC(=O)O)C(=O)N[C@@H](Cc1c[nH]c2ccccc12)C(=O)N[C@@H](CC(C)C)C(=O)N[C@@H](CCCCN)C(=O)N[C@@H](C)C(=O)NCC(=O)NCC(=O)N1CCC[C@H]1C(=O)N[C@@H](CO)C(=O)N[C@@H](CO)C(=O)NCC(=O)N[C@@H](C)C(=O)N1CCC[C@H]1C(=O)N1CCC[C@H]1C(=O)N1CCC[C@H]1C(=O)N[C@@H](CO)C(N)=O)[C@@H](C)CC)C(C)C)C(=O)O
B2: SEQ ID NO: 19 (peptide)
peptide: H[dS]QGTFTSDLSKQK([γGlu-Stearoyl])DEEAVRLFIEWLKAGGPSSGAPPPS-NH2
modifications: N-terminus assumed
SMILES: CCCCCCCCCCCCCCCCCC(=O)N[C@@H](CCC(=O)NCCCC[C@H](NC(=O)[C@H](CCC(N)=O)NC(=O)[C@H](CCCCN)NC(=O)[C@H](CO)NC(=O)[C@H](CC(C)C)NC(=O)[C@H](CC(=O)O)NC(=O)[C@H](CO)NC(=O)[C@@H](NC(=O)[C@H](Cc1ccccc1)NC(=O)[C@@H](NC(=O)CNC(=O)[C@H](CCC(N)=O)NC(=O)[C@@H](CO)NC(=O)[C@@H](N)Cc1c[nH]cn1)[C@@H](C)O)[C@@H](C)O)C(=O)N[C@@H](CC(=O)O)C(=O)N[C@@H](CCC(=O)O)C(=O)N[C@@H](CCC(=O)O)C(=O)N[C@@H](C)C(=O)N[C@H](C(=O)N[C@@H](CCCNC(=N)N)C(=O)N[C@@H](CC(C)C)C(=O)N[C@@H](Cc1ccccc1)C(=O)N[C@H](C(=O)N[C@@H](CCC(=O)O)C(=O)N[C@@H](Cc1c[nH]c2ccccc12)C(=O)N[C@@H](CC(C)C)C(=O)N[C@@H](CCCCN)C(=O)N[C@@H](C)C(=O)NCC(=O)NCC(=O)N1CCC[C@H]1C(=O)N[C@@H](CO)C(=O)N[C@@H](CO)C(=O)NCC(=O)N[C@@H](C)C(=O)N1CCC[C@H]1C(=O)N1CCC[C@H]1C(=O)N1CCC[C@H]1C(=O)N[C@@H](CO)C(N)=O)[C@@H](C)CC)C(C)C)C(=O)O
B3: SEQ ID NO: 23 (peptide)
peptide: H-H[dS]QGTFTSDLSKQK([γGlu-γGlu-Palmitoyl])DEEAVRLFIEWLKAGGPSSGAPPPS-NH2
SMILES: CCCCCCCCCCCCCCCC(=O)N[C@@H](CCC(=O)N[C@@H](CCC(=O)NCCCC[C@H](NC(=O)[C@H](CCC(N)=O)NC(=O)[C@H](CCCCN)NC(=O)[C@H](CO)NC(=O)[C@H](CC(C)C)NC(=O)[C@H](CC(=O)O)NC(=O)[C@H](CO)NC(=O)[C@@H](NC(=O)[C@H](Cc1ccccc1)NC(=O)[C@@H](NC(=O)CNC(=O)[C@H](CCC(N)=O)NC(=O)[C@@H](CO)NC(=O)[C@@H](N)Cc1c[nH]cn1)[C@@H](C)O)[C@@H](C)O)C(=O)N[C@@H](CC(=O)O)C(=O)N[C@@H](CCC(=O)O)C(=O)N[C@@H](CCC(=O)O)C(=O)N[C@@H](C)C(=O)N[C@H](C(=O)N[C@@H](CCCNC(=N)N)C(=O)N[C@@H](CC(C)C)C(=O)N[C@@H](Cc1ccccc1)C(=O)N[C@H](C(=O)N[C@@H](CCC(=O)O)C(=O)N[C@@H](Cc1c[nH]c2ccccc12)C(=O)N[C@@H](CC(C)C)C(=O)N[C@@H](CCCCN)C(=O)N[C@@H](C)C(=O)NCC(=O)NCC(=O)N1CCC[C@H]1C(=O)N[C@@H](CO)C(=O)N[C@@H](CO)C(=O)NCC(=O)N[C@@H](C)C(=O)N1CCC[C@H]1C(=O)N1CCC[C@H]1C(=O)N1CCC[C@H]1C(=O)N[C@@H](CO)C(N)=O)[C@@H](C)CC)C(C)C)C(=O)O)C(=O)O
B4: SEQ ID NO: 24 (peptide)
peptide: H-H[Aib]QGTFTSDLSKQK([γGlu-γGlu-Palmitoyl])EEEAVRLFIEWLKAGGPSSGAPPPS-NH2
SMILES: CCCCCCCCCCCCCCCC(=O)N[C@@H](CCC(=O)N[C@@H](CCC(=O)NCCCC[C@H](NC(=O)[C@H](CCC(N)=O)NC(=O)[C@H](CCCCN)NC(=O)[C@H](CO)NC(=O)[C@H](CC(C)C)NC(=O)[C@H](CC(=O)O)NC(=O)[C@H](CO)NC(=O)[C@@H](NC(=O)[C@H](Cc1ccccc1)NC(=O)[C@@H](NC(=O)CNC(=O)[C@H](CCC(N)=O)NC(=O)C(C)(C)NC(=O)[C@@H](N)Cc1c[nH]cn1)[C@@H](C)O)[C@@H](C)O)C(=O)N[C@@H](CCC(=O)O)C(=O)N[C@@H](CCC(=O)O)C(=O)N[C@@H](CCC(=O)O)C(=O)N[C@@H](C)C(=O)N[C@H](C(=O)N[C@@H](CCCNC(=N)N)C(=O)N[C@@H](CC(C)C)C(=O)N[C@@H](Cc1ccccc1)C(=O)N[C@H](C(=O)N[C@@H](CCC(=O)O)C(=O)N[C@@H](Cc1c[nH]c2ccccc12)C(=O)N[C@@H](CC(C)C)C(=O)N[C@@H](CCCCN)C(=O)N[C@@H](C)C(=O)NCC(=O)NCC(=O)N1CCC[C@H]1C(=O)N[C@@H](CO)C(=O)N[C@@H](CO)C(=O)NCC(=O)N[C@@H](C)C(=O)N1CCC[C@H]1C(=O)N1CCC[C@H]1C(=O)N1CCC[C@H]1C(=O)N[C@@H](CO)C(N)=O)[C@@H](C)CC)C(C)C)C(=O)O)C(=O)O
B5: SEQ ID NO: 21 (peptide)
peptide: H-H[dS]HGTFTSDLSKQK([γGlu-γGlu-Palmitoyl])DEEAVRLFIEWLKAGGPSSGAPPPS-NH2
SMILES: CCCCCCCCCCCCCCCC(=O)N[C@@H](CCC(=O)N[C@@H](CCC(=O)NCCCC[C@H](NC(=O)[C@H](CCC(N)=O)NC(=O)[C@H](CCCCN)NC(=O)[C@H](CO)NC(=O)[C@H](CC(C)C)NC(=O)[C@H](CC(=O)O)NC(=O)[C@H](CO)NC(=O)[C@@H](NC(=O)[C@H](Cc1ccccc1)NC(=O)[C@@H](NC(=O)CNC(=O)[C@H](Cc1c[nH]cn1)NC(=O)[C@@H](CO)NC(=O)[C@@H](N)Cc1c[nH]cn1)[C@@H](C)O)[C@@H](C)O)C(=O)N[C@@H](CC(=O)O)C(=O)N[C@@H](CCC(=O)O)C(=O)N[C@@H](CCC(=O)O)C(=O)N[C@@H](C)C(=O)N[C@H](C(=O)N[C@@H](CCCNC(=N)N)C(=O)N[C@@H](CC(C)C)C(=O)N[C@@H](Cc1ccccc1)C(=O)N[C@H](C(=O)N[C@@H](CCC(=O)O)C(=O)N[C@@H](Cc1c[nH]c2ccccc12)C(=O)N[C@@H](CC(C)C)C(=O)N[C@@H](CCCCN)C(=O)N[C@@H](C)C(=O)NCC(=O)NCC(=O)N1CCC[C@H]1C(=O)N[C@@H](CO)C(=O)N[C@@H](CO)C(=O)NCC(=O)N[C@@H](C)C(=O)N1CCC[C@H]1C(=O)N1CCC[C@H]1C(=O)N1CCC[C@H]1C(=O)N[C@@H](CO)C(N)=O)[C@@H](C)CC)C(C)C)C(=O)O)C(=O)O
B6: SEQ ID NO: 8 (peptide)
peptide: HXHGTFTSDLSKQKDEEAVRLFIEWLKAGGPSSGAPPPS
modifications: Aib at position 2; Lys 14 side-chain NH2 acylated with γE-x70 = (S)-4-Carboxy-4-octadecanoylamino-butyryl-; C-terminal amide (NH2)

How the values were obtained:
Experiment in all cases: cell-based or functional assay
[1] = target: human glucagon receptor (human, UniProt P47871 26-477)
human glucagon receptor, sequence (P47871 26-477): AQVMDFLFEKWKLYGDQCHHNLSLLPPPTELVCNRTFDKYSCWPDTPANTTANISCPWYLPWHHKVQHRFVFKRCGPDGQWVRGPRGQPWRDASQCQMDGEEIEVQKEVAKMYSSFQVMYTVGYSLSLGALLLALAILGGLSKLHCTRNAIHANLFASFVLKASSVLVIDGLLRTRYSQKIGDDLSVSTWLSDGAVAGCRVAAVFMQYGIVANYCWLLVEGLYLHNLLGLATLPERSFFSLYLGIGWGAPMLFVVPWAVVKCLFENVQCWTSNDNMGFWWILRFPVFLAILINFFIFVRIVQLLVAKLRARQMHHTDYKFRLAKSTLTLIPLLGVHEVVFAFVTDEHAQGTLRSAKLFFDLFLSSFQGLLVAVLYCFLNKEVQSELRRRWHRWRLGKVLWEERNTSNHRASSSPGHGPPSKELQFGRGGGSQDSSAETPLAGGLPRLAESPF

[2] = target: human GLP-1 receptor (human, UniProt P43220 24-463)
[3] = target: T1, human GIP receptor

Row | Binder | EC50 hGlucagon-R (cAMP formation) [1] [pM] | EC50 hGLP-1R (cAMP formation) [2] [pM] | EC50 hGIP-R (cAMP formation) [3] [pM]
1 | B1 | 64 | 4.4 | 555
2 | H-H[Aib]HGTFTSDLSKQK([AEEA-AEEA-γGlu-Stearoyl])EEEAVRLFIEWLKAGGPSSGAPPPS-NH2 [SEQ ID NO: 28] | 17.1 | 3.8 | 17
3 | H-H[Aib]HGTFTSDLSKQK([AEEA-AEEA-γGlu-Palmitoyl])EEEAVRLFIEWLKAGGPSSGAPPPS-NH2 [SEQ ID NO: 27] | 23.4 |  | 9.5
4 | B2 | 129 | 3.5 | 400
5 | B3 | 124 | 1.2 | 350
6 | HSHGTFTSDLSKQK([γGlu-Stearoyl])EEEAVRLFIEWLKAGGPSSGAPPPS-NH2 [SEQ ID NO: 10] | 6.9 | 3.4 | 71.1
7 | B4 | 261 |  | 19.9
8 | B5 | 85.9 | 0.8 | 99.4
9 | H[Aib]QGTFTSDLSKQK([γGlu-Stearoyl])EEEAVRLFIEWLKAGGPSSGAPPPS-NH2 [SEQ ID NO: 6] | 309 | 9.4 | 60.7
10 | B6 | 24.5 |  | 25.8
11 | H-H[Aib]HGTFTSDLSKQK([AEEA-AEEA-AEEA-Stearoyl])EEEAVRLFIEWLKAGGPSSGAPPPS-NH2 [SEQ ID NO: 29] | 17.9 | 4.7 | 47.6
